Reference: article PMC10925046, “TERRA-LSD1 phase separation promotes R-loop formation for telomere maintenance in ALT cancer cells”

Tests used:
[1] = molecular target: LSD1 deltaIDR 3KE;CoREST (human;human?, UniProt O60341;Q9UKL0 171-852;289-485, K355E;K357E;K359E|); assay: pull-down; EMSA: 4 C, 5 min, 0.75% agarose in 1x THE pH 7.4 (34 mM Tris, 66 mM HEPES, 0.1 mM EDTA) + 0.1 M K acetate, RNA folded in 10 mM Tris pH 7.4, 100 mM KCl, 1 mM TCE
[2] = molecular target: LSD1 deltaIDR;CoREST (human;human?, UniProt O60341;Q9UKL0 171-852;289-485, |); assay: as above

**Q.** Does UUAGGGUUAGGGUUAGGGUUAGGGUUAGGGUUAGGGUUAGGGUUAGGG (structured_RNA) [biotin-TERRA (UUAGGG)8] bind [1]?
**A.** Result: no binding

**Q.** Does UUAGGGUUAGGGUUAGGGUUAGGGUUAGGGUUAGGGUUAGGGUUAGGG (structured_RNA) [biotin-TERRA (UUAGGG)8] bind [2]?
**A.** Result: binds
